# According to ChEMBL document CHEMBL1275443, “Functional diversity among metallo-beta-lactamases: characterization of the CAR-1 enzyme of Erwinia carotovora” (2008):
# B1: Beta-lactamase L1 (Stenotrophomonas maltophilia), P52700 (protein)
# chain: MRSTLLAFALAVALPAAHTSAAEVPLPQLRAYTVDASWLQPMAPLQIADHTWQIGTEDLTALLVQTPDGAVLLDGGMPQMASHLLDNMKARGVTPRDLRLILLSHAHADHAGPVAELKRRTGAKVAANAESAVLLARGGSDDLHFGDGITYPPANADRIVMDGEVITVGGIVFTAHFMAGHTPGSTAWTWTDTRNGKPVRIAYADSLSAPGYQLQGNPRYPHLIEDYRRSFATVRALPCDVLLTPHPGASNWDYAAGARAGAKALTCKAYADAAEQKFDGQLAKETAGAR
# B2: Metallo-beta-lactamase (Caulobacter vibrioides), Q8KKG1 (protein)
# chain: MKRLILAAAASLLALASAAHADDMPANWTKPTKPYRVVGNIYYVGTEGISSWLITSSEGHVVLDGGPNAETGKLVERNITALGFQLADVKILINTHAHYDHAGGLAQLKADTGAKLWISRDDAPAMAAGHHIGDNIYGPTPMPAAKPDRSFGDQTKLKLGEIAMVAHLTPGHTIGCTSWTTAVVEKGRPLTVTFPCSLSVAGNVLVGNKTHRTIVADYRASFAKLRAIPTDVMLPAHEEQGNLLAKRQKQLRGDPNAFVDPGELARFVDASEAAFNKELARQQAAGPNR
# B3: THIN-B proetin (Janthinobacterium lividum), Q9AEF9 (protein)
# chain: MTLLAKLMLATVATMSAATVQAKTPAPKPDTPVDCDSCKAWNGEVTPFNVFGNTWYVGTAGLSAVLVTSPQGHVLLDGALPQSAPLIIANIAALGFRIEDVKFILNSHAHWDHAGGIAALQAASGATVVASASGALGLQSGTNGKDDPQFQAKPVVHVAKVEKVKVVGEGDAIKLGPLNLTAHMTPGHTPGATTWTWTSCEGQRCLDVVYADSLNPYSSGDFTYTGKGDGPDISASFAASIAKVAALPCDIILSVHPDSTGVLDKAAKRSGEHNPFIDANACRAYAATADAMLTKRLAKERGVALPAAAPAAQHAH
# B4: GOB-1 metallo-beta-lactamase (Elizabethkingia meningoseptica), A4GRB7 (protein)
# chain: MRNFATLFFMFICLGLNAQVVKEPENMPKEWNQTYEPFRIAGNLYYVGTYDLASYLIVTDKGNILINTGTAESLPIIKANIQKLGFNYKDIKILLLTQAHYDHTGALQDLKTETGAKFYADKADADVLRTGGKSDYEMGKYGVTFKPVTPDKTLKDQDKITLGNTILTLLHHPGHTKGSCSFIFETKDEKRKYRVLIANMPSVIVDKKFSEVTAYPNIQSDYAYTFKAMKNLDFDLWVASHASQFDLHEKRKEGDPYNPQLFMDKQSYFQNLNDLEKSYLDKIKKDSQDK
# Assays:
# [1] = substrate: CC(C)(O/N=C(\C(=O)N[C@@H]1C(=O)N2C(C(=O)[O-])=C(C[n+]3ccccc3)CS[C@H]12)c1csc(N)n1)C(=O)O; test: (§1) Ratio of Kcat to Km for Pseudomonas maltophilia ULA-511 beta-Lactamase L-1; conditions: Stenotrophomonas maltophilia
# [2] = substrate: CC1(C)S[C@@H]2[C@H](NC(=O)Cc3ccccc3)C(=O)N2[C@H]1C(=O)O; test: as §1; conditions: Stenotrophomonas maltophilia
# [3] = substrate: CC1(C)S[C@@H]2[C@H](NC(=O)[C@H](C(=O)O)c3ccsc3)C(=O)N2[C@H]1C(=O)O; test: as §1; conditions: Stenotrophomonas maltophilia
# [4] = substrate: CC1(C)S[C@@H]2[C@H](NC(=O)[C@H](N)c3ccccc3)C(=O)N2[C@H]1C(=O)O; test: as §1; conditions: Stenotrophomonas maltophilia
# [5] = substrate: CCN1CCN(C(=O)N[C@@H](C(=O)N[C@@H]2C(=O)N3[C@@H]2SC(C)(C)[C@@H]3C(=O)O)c2ccccc2)C(=O)C1=O; test: as §1; conditions: Stenotrophomonas maltophilia
# [6] = substrate: CO/N=C(\C(=O)N[C@@H]1C(=O)N2C(C(=O)O)=C(COC(C)=O)CS[C@H]12)c1csc(N)n1; test: as §1; conditions: Stenotrophomonas maltophilia
# [7] = substrate: CO/N=C(\C(=O)N[C@@H]1C(=O)N2C(C(=O)O)=C(COC(N)=O)CS[C@H]12)c1ccco1; test: as §1; conditions: Stenotrophomonas maltophilia
# [8] = substrate: CO/N=C(\C(=O)N[C@@H]1C(=O)N2C(C(=O)[O-])=C(C[N+]3(C)CCCC3)CS[C@H]12)c1csc(N)n1; test: as §1; conditions: Stenotrophomonas maltophilia
# [9] = substrate: CO[C@@]1(NC(=O)C(C(=O)O)c2ccsc2)C(=O)N2[C@@H](C(=O)O)C(C)(C)S[C@@H]21; test: as §1; conditions: Stenotrophomonas maltophilia
# [10] = substrate: CO[C@@]1(NC(=O)Cc2cccs2)C(=O)N2C(C(=O)O)=C(COC(N)=O)CS[C@@H]21; test: as §1; conditions: Stenotrophomonas maltophilia
# [11] = substrate: C[C@@H](O)[C@H]1C(=O)N2C(C(=O)O)=C(SCCNC=N)C[C@H]12; test: as §1; conditions: Stenotrophomonas maltophilia
# [12] = substrate: CC(=O)OCC1=C(C(=O)O)N2C(=O)[C@@H](NC(=O)Cc3cccs3)[C@H]2SC1; test: (§2) Ratio of Kcat to Km for Caulobacter crescentus beta-Lactamase CAU-1; conditions: Caulobacter vibrioides
# [13] = substrate: CC(C)(O/N=C(\C(=O)N[C@@H]1C(=O)N2C(C(=O)[O-])=C(C[n+]3ccccc3)CS[C@H]12)c1csc(N)n1)C(=O)O; test: as §2; conditions: Caulobacter vibrioides
# [14] = substrate: CC1(C)S[C@@H]2[C@H](NC(=O)Cc3ccccc3)C(=O)N2[C@H]1C(=O)O; test: as §2; conditions: Caulobacter vibrioides
# [15] = substrate: CC1(C)S[C@@H]2[C@H](NC(=O)[C@H](N)c3ccccc3)C(=O)N2[C@H]1C(=O)O; test: as §2; conditions: Caulobacter vibrioides
# [16] = substrate: CCN1CCN(C(=O)N[C@@H](C(=O)N[C@@H]2C(=O)N3[C@@H]2SC(C)(C)[C@@H]3C(=O)O)c2ccccc2)C(=O)C1=O; test: as §2; conditions: Caulobacter vibrioides
# [17] = substrate: CO/N=C(\C(=O)N[C@@H]1C(=O)N2C(C(=O)O)=C(COC(N)=O)CS[C@H]12)c1ccco1; test: as §2; conditions: Caulobacter vibrioides
# [18] = substrate: C[C@@H](O)[C@H]1C(=O)N2C(C(=O)O)=C(SCCNC=N)C[C@H]12; test: as §2; conditions: Caulobacter vibrioides
# [19] = substrate: CC(C)(O/N=C(\C(=O)N[C@@H]1C(=O)N2C(C(=O)[O-])=C(C[n+]3ccccc3)CS[C@H]12)c1csc(N)n1)C(=O)O; test: (§3) Ratio of Kcat to Km for Janthinobacterium lividum THIN-B
# [20] = substrate: CC1(C)S[C@@H]2[C@H](NC(=O)[C@H](N)c3ccccc3)C(=O)N2[C@H]1C(=O)O; test: as §3
# [21] = substrate: CCN1CCN(C(=O)N[C@@H](C(=O)N[C@@H]2C(=O)N3[C@@H]2SC(C)(C)[C@@H]3C(=O)O)c2ccccc2)C(=O)C1=O; test: as §3
# [22] = substrate: CO/N=C(\C(=O)N[C@@H]1C(=O)N2C(C(=O)O)=C(COC(C)=O)CS[C@H]12)c1csc(N)n1; test: as §3
# [23] = substrate: CO/N=C(\C(=O)N[C@@H]1C(=O)N2C(C(=O)O)=C(COC(N)=O)CS[C@H]12)c1ccco1; test: as §3
# [24] = substrate: CO/N=C(\C(=O)N[C@@H]1C(=O)N2C(C(=O)[O-])=C(C[N+]3(C)CCCC3)CS[C@H]12)c1csc(N)n1; test: as §3
# [25] = substrate: C[C@@H](O)[C@H]1C(=O)N2C(C(=O)O)=C(SCCNC=N)C[C@H]12; test: as §3
# [26] = substrate: CC(=O)OCC1=C(C(=O)O)N2C(=O)[C@@H](NC(=O)Cc3cccs3)[C@H]2SC1; test: (§4) Ratio of Kcat to Km for Chryseobacterium meningosepticum beta-Lactamase GOB-1; conditions: Elizabethkingia meningoseptica
# [27] = substrate: CC(C)(O/N=C(\C(=O)N[C@@H]1C(=O)N2C(C(=O)[O-])=C(C[n+]3ccccc3)CS[C@H]12)c1csc(N)n1)C(=O)O; test: as §4; conditions: Elizabethkingia meningoseptica
# [28] = substrate: CC1(C)S[C@@H]2[C@H](NC(=O)Cc3ccccc3)C(=O)N2[C@H]1C(=O)O; test: as §4; conditions: Elizabethkingia meningoseptica
# [29] = substrate: CC1(C)S[C@@H]2[C@H](NC(=O)[C@H](C(=O)O)c3ccsc3)C(=O)N2[C@H]1C(=O)O; test: as §4; conditions: Elizabethkingia meningoseptica
# [30] = substrate: CCN1CCN(C(=O)N[C@@H](C(=O)N[C@@H]2C(=O)N3[C@@H]2SC(C)(C)[C@@H]3C(=O)O)c2ccccc2)C(=O)C1=O; test: as §4; conditions: Elizabethkingia meningoseptica
# [31] = substrate: CO/N=C(\C(=O)N[C@@H]1C(=O)N2C(C(=O)O)=C(COC(C)=O)CS[C@H]12)c1csc(N)n1; test: as §4; conditions: Elizabethkingia meningoseptica
# [32] = substrate: CO/N=C(\C(=O)N[C@@H]1C(=O)N2C(C(=O)O)=C(COC(N)=O)CS[C@H]12)c1ccco1; test: as §4; conditions: Elizabethkingia meningoseptica
# [33] = substrate: CO/N=C(\C(=O)N[C@@H]1C(=O)N2C(C(=O)[O-])=C(C[N+]3(C)CCCC3)CS[C@H]12)c1csc(N)n1; test: as §4; conditions: Elizabethkingia meningoseptica
# [34] = substrate: CO[C@@]1(NC(=O)Cc2cccs2)C(=O)N2C(C(=O)O)=C(COC(N)=O)CS[C@@H]21; test: as §4; conditions: Elizabethkingia meningoseptica
# [35] = substrate: C[C@@H](O)[C@H]1C(=O)N2C(C(=O)O)=C(SCCNC=N)C[C@H]12; test: as §4; conditions: Elizabethkingia meningoseptica
protein,measurement,setting,value
B1,kcat/Km,[1],1.8 ×10⁵ /M/s
same,kcat/Km,[2],2.2 ×10⁷ /M/s
same,kcat/Km,[3],2.7 ×10⁶ /M/s
same,kcat/Km,[4],4.4 ×10⁶ /M/s
same,kcat/Km,[5],7 ×10⁶ /M/s
same,kcat/Km,[6],2.6 ×10⁶ /M/s
same,kcat/Km,[7],2.7 ×10⁶ /M/s
same,kcat/Km,[8],1.69 ×10⁴ /M/s
same,kcat/Km,[9],1.2 ×10⁶ /M/s
same,kcat/Km,[10],5.5 ×10⁵ /M/s
same,kcat/Km,[11],7.3 ×10⁵ /M/s
B2,kcat/Km,[12],4.3 ×10⁵ /M/s
same,kcat/Km,[13],2 ×10³ /M/s
same,kcat/Km,[14],4.5 ×10⁵ /M/s
same,kcat/Km,[15],5 ×10⁵ /M/s
same,kcat/Km,[16],5.7 ×10⁵ /M/s
same,kcat/Km,[17],1.4 ×10⁴ /M/s
same,kcat/Km,[18],2 ×10⁵ /M/s
B3,kcat/Km,[19],1.4 ×10⁵ /M/s
same,kcat/Km,[20],3.7 ×10⁵ /M/s
same,kcat/Km,[21],2 ×10⁵ /M/s
same,kcat/Km,[22],2 ×10⁶ /M/s
same,kcat/Km,[23],2.8 ×10⁶ /M/s
same,kcat/Km,[24],7.9 ×10³ /M/s
same,kcat/Km,[25],1.5 ×10⁶ /M/s
B4,kcat/Km,[26],6.7 ×10⁵ /M/s
same,kcat/Km,[27],7.6 ×10⁵ /M/s
same,kcat/Km,[28],1.9 ×10⁷ /M/s
same,kcat/Km,[29],5.2 ×10⁵ /M/s
same,kcat/Km,[30],1.7 ×10⁶ /M/s
same,kcat/Km,[31],8.5 ×10⁵ /M/s
same,kcat/Km,[32],9.8 ×10⁵ /M/s
same,kcat/Km,[33],2 ×10⁵ /M/s
same,kcat/Km,[34],2.5 ×10⁵ /M/s
same,kcat/Km,[35],6.6 ×10⁵ /M/s
